The assay has as its target T1, CUL5(NEDD8) (human, UniProt Q93034 1-780; Q15843 1-76, NEDD8 attached at K724).
T1 construct: cullin 5, human; NEDD8, human, conjugated to CUL5; Always present together with RBX2 and ELOB/C in the experiments; written alone for the pairs inside the complexes; The His tag on CUL5 served the Ni-NTA step before TEV cleavage; also called neddylated CUL5; source: E. coli BL21, coexpressed with RBX2 and ELOB/C, neddylated in mixed lysates, purified (Ni-NTA, SEC); not shown: His6, N-terminal, …
Put plainly: SEC; ARIH2 mixed with an equimolar amount of ELOB/C-CUL5(NEDD8)-RBX2 or ELOB/C-CUL5-RBX2, separated by size exclusion; fractions on SDS-PAGE. Conditions: both partners purified.

The source of these data is publication PMC7950132 (Molecular & Cellular Proteomics : MCP, 2021).

T1 sequence (Q93034 whole entry, chain 1 of 2): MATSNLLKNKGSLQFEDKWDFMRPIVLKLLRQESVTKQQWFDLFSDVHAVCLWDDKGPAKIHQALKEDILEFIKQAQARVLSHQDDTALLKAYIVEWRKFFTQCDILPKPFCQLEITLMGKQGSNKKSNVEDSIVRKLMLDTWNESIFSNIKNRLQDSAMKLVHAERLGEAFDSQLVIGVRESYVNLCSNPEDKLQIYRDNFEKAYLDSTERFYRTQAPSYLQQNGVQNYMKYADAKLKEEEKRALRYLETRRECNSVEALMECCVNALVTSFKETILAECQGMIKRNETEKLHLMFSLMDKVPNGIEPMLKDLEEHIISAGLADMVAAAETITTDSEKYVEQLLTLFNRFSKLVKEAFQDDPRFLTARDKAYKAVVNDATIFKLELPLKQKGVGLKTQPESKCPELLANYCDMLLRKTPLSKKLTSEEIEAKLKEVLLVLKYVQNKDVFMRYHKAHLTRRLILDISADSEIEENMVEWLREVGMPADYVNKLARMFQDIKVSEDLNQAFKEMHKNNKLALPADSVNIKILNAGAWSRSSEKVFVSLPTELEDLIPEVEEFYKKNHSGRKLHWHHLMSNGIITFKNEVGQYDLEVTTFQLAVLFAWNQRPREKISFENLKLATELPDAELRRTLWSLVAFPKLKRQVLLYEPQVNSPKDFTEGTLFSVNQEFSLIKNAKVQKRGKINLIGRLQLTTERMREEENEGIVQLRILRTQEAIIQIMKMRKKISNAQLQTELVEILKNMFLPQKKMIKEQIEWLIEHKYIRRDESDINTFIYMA
T1 sequence (Q15843 1-76, chain 2 of 2): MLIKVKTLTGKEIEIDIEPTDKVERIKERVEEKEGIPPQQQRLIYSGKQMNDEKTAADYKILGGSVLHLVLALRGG

B1: Ariadne RBR E3 ubiquitin protein ligase 2 (ARIH2) (enzyme, human, UniProt O95376 1-493, looked up)
chain: MSVDMNSQGSDSNEEDYDPNCEEEEEEEEDDPGDIEDYYVGVASDVEQQGADAFDPEEYQFTCLTYKESEGALNEHMTSLASVLKVSHSVAKLILVNFHWQVSEILDRYKSNSAQLLVEARVQPNPSKHVPTSHPPHHCAVCMQFVRKENLLSLACQHQFCRSCWEQHCSVLVKDGVGVGVSCMAQDCPLRTPEDFVFPLLPNEELREKYRRYLFRDYVESHYQLQLCPGADCPMVIRVQEPRARRVQCNRCNEVFCFKCRQMYHAPTDCATIRKWLTKCADDSETANYISAHTKDCPKCNICIEKNGGCNHMQCSKCKHDFCWMCLGDWKTHGSEYYECSRYKENPDIVNQSQQAQAREALKKYLFYFERWENHNKSLQLEAQTYQRIHEKIQERVMNNLGTWIDWQYLQNAAKLLAKCRYTLQYTYPYAYYMESGPRKKLFEYQQAQLEAEIENLSWKVERADSYDRGDLENQMHIAEQRRRTLLKDFHDT
notes: ARIH2, human, codon-optimised synthetic gene; also called ARIH2 RBRL; source: E. coli BL21, purified (Ni-NTA, SEC); not shown: His6, N-terminal, cleaved; MBP, N-terminal, cleaved
With B1, the binding result is “binds”.
